The supplement of paper PMC7125110
± gives the standard error. For part of these data: Variants at the floor of the assay were thinned out.

B1: glmS ribozyme (parent)
chain: AUAAAAGCGCCAGAACUACAGAAAUGUAGUUGACGAGGAGGAGGUUUAUCGAAUUUUCGGCGGAUGCCUCCAAA

Tests used:
Conditions in all cases: with glucosamine-6-phosphate
glucosamine-6-phosphate [1] = variants of: B1; assay: kcat; higher = faster cleavage; RNA array
Method in brief: (§1)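 Tiles of sequenced MiSeq chips were imaged over ~14 h at 37 °C. On them, barcoded ribozyme variants had been transcribed in situ by E. coli RNA polymerase and were tracked via a hybridised Cy3 probe while glucosamine-6-phosphate (40 μM to 10 mM) in HEPES/KCl/Mg(OAc)2 buffer flowed in. Per-tile medians, normalised to baseline and to non-cleaving reference variants, were fit to one- or two-exponential decays for kobs, and weighted Michaelis–Menten fits gave kcat and KM.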

glucosamine-6-phosphate [2] = variants of: B1; assay: KM; higher = weaker cofactor use; RNA array
Method in brief: as §1

glucosamine-6-phosphate [3] = variants of: B1; assay: self-cleavage kobs at 40 uM GlcN6P; higher = faster cleavage; RNA array
Method in brief: as §1

glucosamine-6-phosphate [4] = variants of: B1; assay: self-cleavage kobs at 2500 uM GlcN6P; higher = faster cleavage; RNA array
Method in brief: as §1

glucosamine-6-phosphate [5] = variants of: B1; assay: self-cleavage kobs at 10000 uM GlcN6P; higher = faster cleavage; RNA array
Method in brief: as §1

glucosamine-6-phosphate [6] = variants of: B1; assay: self-cleavage kobs at 640 uM GlcN6P; higher = faster cleavage; RNA array
Method in brief: as §1

glucosamine-6-phosphate [7] = variants of: B1; assay: self-cleavage kobs at 160 uM GlcN6P; higher = faster cleavage; RNA array
Method in brief: as §1

Variant | kcat (glucosamine-6-phosphate [1]) [s⁻¹] | KM (glucosamine-6-phosphate [2]) [µM] | self-cleavage kobs at 40 uM GlcN6P (glucosamine-6-phosphate [3]) [s⁻¹] | self-cleavage kobs at 2500 uM GlcN6P (glucosamine-6-phosphate [4]) [s⁻¹] | self-cleavage kobs at 10000 uM GlcN6P (glucosamine-6-phosphate [5]) [s⁻¹] | self-cleavage kobs at 640 uM GlcN6P (glucosamine-6-phosphate [6]) [s⁻¹] | self-cleavage kobs at 160 uM GlcN6P (glucosamine-6-phosphate [7]) [s⁻¹]
AUAAAAGCGCCAAAACUACAGAAAUGUAGUUGACGAGGAGGAGGUUUAUCGAAUUUCCGGCGGAUGCCUCCAAA | 7.9e-05 ± 5.5e-06 | 4540 ± 780 | < 1e-05 | 2.88e-05 ± 9.2e-06 | 5.42e-05 ± 8.5e-06 |  | 
AUAAAAGCGCCAGAACUACAGAAAUGUAGUUGACGAGGAGGAGGUUUAUCGAAUUUUCGGCGGAUGCAUUCAAA | 1.14e-05 ± 4.1e-06 |  |  |  |  |  | 
AUAAAAGCGCCAGAACUACAGAAAUGUAGUUGACGAGGAGGAGGUUUAUUGAAUUUUCGGCGGAUGCAUCCAAA | 3.06e-05 ± 9.8e-06 |  |  | 3.28e-05 ± 1.5e-05 |  | 4.9e-05 ± 1.9e-05 | 
AUAAAAGCGCCAGAACUACAGAAAUGUAGUUGACGAGGAGGUGGUUUUUCGAAUUUUCGGCGGUUGCUUCCAAA | < 1e-05 | 11.3 ± 3.5 |  | < 1e-05 | < 1e-05 |  | 
AUAAAAGCGCCAGAACUACAGAAAUGUAGUUGACGAGGAGGAGGUUUAUCGAAUCUUCGGCGGAUGCCUACAAA | 1.26e-05 ± 1.6e-06 |  | < 1e-05 |  |  |  | 
AUAAAAGCGCCAGAACUACAGAAAUGUAGUUGACGAGGAGCAGGUUGAUCGAAUUUUCGGCGGAUGCCUCCAAA | 0.000713 ± 0.00028 |  |  | 3.37e-05 ± 1.6e-05 | 0.000117 ± 2.8e-05 |  | 
AUAAAAGCGCCAGAACUACAGAAAUGUAGUUUACGAGGAGGAGGUUUAUCGAAUUUUCGGCGGGUGCCUCCAAA | 0.000904 ± 0.0002 | 3130 ± 1100 |  | 0.00034 ± 4.6e-05 | 0.000774 ± 0.00011 | 0.000178 ± 2.3e-05 | 4.19e-05 ± 1.1e-05
AUAAAAGCGCCAGAACUACAGAAAUGUAGUCGACGAGGAGGAGGUUUAUCGAAUUUUCGGCGGACGCCUCCAAA | 5e-05 ± 2.5e-06 | 238 ± 120 |  | 4.75e-05 ± 9.5e-06 | 4.78e-05 ± 6.9e-06 | 3.88e-05 ± 1.4e-05 | 
AUAAAAGCGCCAGAAUUACAGAAAUGUAGUUGACGAGGACGAGGUUUAUCGAAUUUUCGGCGGAUGCCUCCAAA | 0.00242 ± 0.00035 | 1020 ± 220 | 0.00011 ± 1.1e-05 | 0.00184 ± 0.00021 | 0.00227 ± 0.00027 | 0.000837 ± 8.6e-05 | 0.000291 ± 3.7e-05
AUAAAAGCGGCAGAACUACAGAAAUGUAGUUGACGAGGAGGAGGUAUAUCGAAUUUUCGGCGGAUGCCUCCAAA | < 1e-05 |  |  | < 1e-05 |  | < 1e-05 | 
AUAAAAGCGCCGGAACUACAGAAAUGUAGUUGACGAGGAGGAGGUUUAUCGAAUUUUCGGCGGAUGCCUCUAAA | 0.00146 ± 0.0001 | 4370 ± 470 |  | 0.000525 ± 4.6e-05 | 0.00102 ± 8.1e-05 | 0.000183 ± 1.9e-05 | 5.89e-05 ± 1.1e-05
AUAAAAGCGCCGGAACUACAGAAAUGUAGUUGACGAGGAGGAGGUUUAUCGAGUUUUCGGCGGAUGCCUCCAAA | 0.0017 ± 0.00017 | 4470 ± 620 |  | 0.000633 ± 7e-05 | 0.00114 ± 0.00015 | 0.000231 ± 3.1e-05 | 5.44e-05 ± 7.9e-06
AUAAAAGCGCCAGAACUACAGAAAUGUAGUUGACGAGGAGGAGGUUUAUCGAAUUUUAGGCGGAUGCGUCCAAA | 3.84e-05 ± 1.3e-05 |  |  | 4.14e-05 ± 1.2e-05 |  | 6.18e-05 ± 1.1e-05 | 4.34e-05 ± 1.2e-05
AUAAAAGCGCCAGAACUACAGAAAUGUAAUUGACGAGGAGGAGGUUUAUCGAUUUUUCGGCGGAUGCCUCCAAA | 0.00212 ± 0.00065 |  | 9.5e-05 ± 1.9e-05 | 0.00129 ± 0.00019 | 0.00276 ± 0.00055 | 0.000595 ± 9.3e-05 | 0.000233 ± 5.5e-05
AUAAAAGCGCCAGAACUACAGAAAUGUAGUUGACGAGGAGGAGGGUUAUCGAGUUUUCGGCGGAUGCCUCCAAA | 0.0084 ± 0.0028 | 2020 ± 990 | 0.000258 ± 4.3e-05 | 0.00535 ± 0.0012 | 0.00681 ± 0.0011 | 0.00204 ± 0.00042 | 0.000367 ± 0.00012
AUAAAGGCGCCAGAACUACAGAAAUGUAGUUGACGAGGAGGACGUUUAUCGAAUUUUCGGCGGAUGCGUCCAAA | 0.000785 ± 0.00019 | 1000 ± 470 | 3.71e-05 ± 1.7e-05 | 0.000399 ± 0.00011 | 0.000819 ± 0.00015 | 0.000423 ± 8.3e-05 | 9.17e-05 ± 2.6e-05
